According to PMC5626764 (Nature Communications, 2017):

T1: SHG-labeled wildtype NiV G ectodomain (Nipah virus, UniProt Q9IH62 71-602)
T1 sequence: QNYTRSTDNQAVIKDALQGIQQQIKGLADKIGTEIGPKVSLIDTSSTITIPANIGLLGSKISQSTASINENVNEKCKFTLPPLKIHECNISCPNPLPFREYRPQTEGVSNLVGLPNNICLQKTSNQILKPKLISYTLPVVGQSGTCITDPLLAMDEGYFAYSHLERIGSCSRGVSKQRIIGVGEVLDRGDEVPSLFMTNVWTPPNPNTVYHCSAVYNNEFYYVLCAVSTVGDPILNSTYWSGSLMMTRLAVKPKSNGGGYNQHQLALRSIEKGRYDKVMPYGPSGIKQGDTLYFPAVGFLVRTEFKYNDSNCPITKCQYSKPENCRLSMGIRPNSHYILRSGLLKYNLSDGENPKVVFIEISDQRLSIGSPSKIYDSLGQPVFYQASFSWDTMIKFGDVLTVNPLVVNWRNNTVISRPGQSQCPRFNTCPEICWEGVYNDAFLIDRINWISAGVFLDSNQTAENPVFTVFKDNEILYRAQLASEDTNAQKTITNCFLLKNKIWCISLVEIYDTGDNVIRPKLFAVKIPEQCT

B1: Wildtype NiV G ectodomain (Nipah virus attachment glycoprotein G, residues 71-602, N-terminal His6-tag) (domain or fragment)
chain: T1 sequence
B2: ephrinB2-229 (S-tagged monomeric ephrinB2 ectodomain, residues 25-229) (domain or fragment, human, UniProt P52799 25-229, looked up)
chain: SKSIVLEPIYWNSSNSKFLPGQGLVLYPQIGDKLDIICPKVDSKTVGQYEYYKVYMVDKDQADRCTIKKENTPLLNCAKPDQDIKFTIKFQEFSPNLWGLEFQKNKDYYIISTSNGSLEGLDNQEGGVCQTRAMKILMKVGQDASSAGSTRNKDPTRRPELEAGTNGRSSTTSPFVKPNPGSSTDGNSAGHSGNNILGSEVALFA
B3: Stag-ephrinB2-167 (S-tagged monomeric ephrinB2 globular domain, residues 25-167) (domain or fragment, human, UniProt P52799 25-167, looked up)
chain: SKSIVLEPIYWNSSNSKFLPGQGLVLYPQIGDKLDIICPKVDSKTVGQYEYYKVYMVDKDQADRCTIKKENTPLLNCAKPDQDIKFTIKFQEFSPNLWGLEFQKNKDYYIISTSNGSLEGLDNQEGGVCQTRAMKILMKVGQD
B4: ephrinB2-167 from His6-ephrinB2-167 with the His6-tag removed by enterokinase cleavage (domain or fragment, human, UniProt P52799 25-167, looked up)
chain: B3 chain
notes: also called monomeric ephrinB2
B5: ephrinB2-Fc (human ephrinB2 residues 1-229, Factor XA cleavage site, human IgG1 residues 100-330) (Fc fusion)
chain: IVLEPIYWNSSNSKFLPGQGLVLYPQIGDKLDIICPKVDSKTVGQYEYYKVYMVDKDQADRCTIKKENTPLLNCAKPDQDIKFTIKFQEFSPNLWGLEFQKNKDYYIISTSNGSLEGLDNQEGGVCQTRAMKILMKVGQDASSAGSTRNKDPTRRPELEAGTNGRSSTTSPFVKPNPGSSTDGNSAGHSGNNILGSEVALFA
notes: also called dimeric ephrinB2; dimeric receptor

How the values were obtained:
[1] = molecular target: the molecule itself; experiment: negative stain electron microscopy
[2] = molecular target: B1; experiment: ELISA; conditions: both partners purified
[3] = molecular target: T1, SHG-labeled wildtype NiV G ectodomain; experiment: second harmonic generation (SHG); conditions: both partners purified

Binder	stoichiometry N [1]	Kd [2]	ΔSHG [3]
B1	4	–	–
B2	–	33.2 nM	–
B3	–	11.9 nM	–
B4	–	–	-27.9%
B5	–	0.088 nM	-12.9%
